One molecule from patent US20250145679A1 (WUXI BIOLOGICS IRELAND, published 2025) can be followed below.

One experiment deals with T1, IL-2/15Rβ (CD122) ECD (human, UniProt P14784 27-239).
T1 construct: The SPR text names the analyte only as 'W327151-hPro2.ECD.His'; also called Receptor β; IL-15Rβ
T1 sequence: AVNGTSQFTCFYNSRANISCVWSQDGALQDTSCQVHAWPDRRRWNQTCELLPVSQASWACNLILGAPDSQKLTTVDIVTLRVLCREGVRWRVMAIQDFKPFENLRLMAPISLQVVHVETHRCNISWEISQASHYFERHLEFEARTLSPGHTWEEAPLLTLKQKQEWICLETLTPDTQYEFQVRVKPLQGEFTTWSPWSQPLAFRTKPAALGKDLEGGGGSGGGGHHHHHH
Nature of the experiment: SPR, Biacore 8K, complex captured on anti-human Fc CM5 chip, receptor ECD-His injected. The procedure:
IL-15 variants binding affinity to its receptor were detected by SPR using Biacore 8K. Each variant was captured on anti-human Fc immobilized CM5 sensor chip (cytiva). W327151-hPro2.ECD.His at different concentrations were injected over the sensor chip at a flow rate of 30 uL/min for an association phase of 120 s, followed by 120 s dissociation. The chip was then regenerated by 10 mM Glycine-HCl pH 1.5 after each binding cycle.
For orientation: SPR reads the build-up and loss of mass on a sensor chip optically.

The target in experiment [1] is T2, human lymphoma (HH) cell line (human).
T2 construct: Cells, not a defined protein
Nature of the experiment: binding to HH cells, dose-dependent (FIG. 5); receptor on the cells not named.

B1: W327151-TXU1.P1-V0013.uIgG4V322 (Fc fusion)
chain 1: NWVNVISDLKKIEDLIQSMHIDATLYTESDVHPSCKVTAMKCFLLELQVISLESGDASIHDTVENLIILANNSLSSNGNVTESGCKECEELEEKNIKEFLQSFVHIVQMFESKYGPPCPPCPAPEAAGGPSVFLFPPKPKDTLMISRTPEVTCVVVDVSQEDPEVQFNWYVDGVEVHNAKTKPREEQFNSTYRVVSVLTVLHQDWLNGKEYKCKVSNKGLPSSIEKTISKAKGQPREPQVYTLPPCQEEMTKNQVSLWCLVKGFYPSDIAVEWESNGQPENNYKTTPPVLDSDGSFFLYSRLTVDKSRWQEGNVFSCSVMHEALHNHYTQKSLSLSLGK
chain 2: ITCPPPMSVEHADIWVKSYSLYSRERYICNSGFKRKAGTSSLTECVLNKATNVAHWTTPSLKCIRESKYGPPCPPCPAPEAAGGPSVFLFPPKPKDTLMISRTPEVTCVVVDVSQEDPEVQFNWYVDGVEVHNAKTKPREEQFNSTYRVVSVLTVLHQDWLNGKEYKCKVSNKGLPSSIEKTISKAKGQPREPQVCTLPPSQEEMTKNQVSLSCAVKGFYPSDIAVEWESNGQPENNYKTTPPVLDSDGSFFLVSRLTVDKSRWQEGNVFSCSVMHEALHNHYTQKSLSLSLGK
notes: Heterodimeric IL-15/IL-15Ralpha-Fc polypeptide complex; IgG4 Fc with S228P and F234A/L235A, knob-into-hole
The Kd is the concentration at which binding is half-saturated. A low value points to higher affinity. The koff is the rate constant with which the complex falls apart. Low values mean a long-lived complex, high ones a short-lived complex. What is called kon is the rate constant with which the complex forms. Higher therefore signals faster complex formation. In general, EC50 refers to the concentration needed to bring the measured effect to its halfway point. Low values mean higher potency in that assay, high ones lower potency in that assay. Regarding B1, in the experiment with IL-2/15Rβ (CD122) ECD, the Kd was determined as 7.9 nM, the koff was found to be 0.00483 s⁻¹ and the kon was found to be 612000 M⁻¹ s⁻¹. This molecule also gave an EC50 in experiment [1] of 91.9 nM.
